Test results from article PMC2806925, “Crystal Structure of the S. solfataricus Archaeal Exosome Reveals Conformational Flexibility in the RNA-Binding Ring” (PLoS ONE, 2010).

Biological target: the molecule itself
Test: crystal structure; Rrp4-exosome isoform (Rrp4, Rrp41, Rrp42 co-expressed and co-purified); 2.9 Å, space group C2; 30% PEG4000, 100 mM Tris-HCl pH 8.6, 200 mM Mg(Ac)2; refined without three-fold NCS

B1: Sulfolobus solfataricus exosome subunit Rrp4 as in the crystallised Rrp4-exosome isoform (natural protein)
chain: MNMSQSQKIVLQPRSIVVPGELLAEGEFQIPWSPYILKINSKYYSTVVGLFDVKDTQFEVIPLEGSFYYPKINDIVIGLVEDVEIYGWVVDIKAPYKAYLPASNLLGRSINVGEDLRRYLDVGDYVIARIENFDRSIDPVLSVKGKDLGRVSNGIVIDIMPVKVPRVIGKNKSMYETLTSKSGCSIFVANNGRIWATCPSRFSEEILIEAIRKIENESHIKGLTDRIKQFIEEKLGERNASSGETKTNS
notes: domains as printed: N-ter aa 1-50, S1 aa 56-126, KH aa 135-250; The purification of the Rrp4-exosome isoform is not described on its own; In the four-subunit preparation the His6-tag was removed with TEV protease, so the tag was probably cleaved here too; also called Chains C, F and I
stoichiometry N: 3
